For test [1], the target named is 0410 Y1A peptide-DR1 complex (human).
The target of test [2] is OPT1 Y1A peptide-DR1 complex (human).
Test [3] addresses Y1I peptide-DR1 complex (human).
In test [4] the target is L4G peptide-DR1 complex (human).
The target of test [5] is L4G′ peptide-DR1 complex (human).
The target of test [6] is L4R peptide-DR1 complex (human).
Test [7] concerns the target A6E peptide-DR1 complex (human).
In test [8] the target is A6G peptide-DR1 complex (human).
Test [9] addresses I9E peptide-DR1 complex (human). The test is described as follows: fluorescence polarisation; real-time fluorescence anisotropy of Alexa Fluor 488-peptide leaving DR1 (50 nM complex) with titrated HLA-DM (up to 90 μM) and 20 μM unlabeled competitor peptide; 250 mM citrate, 150 mM NaCl, pH 5.0, 37 °C; kobs fitted to a Michaelis-Menten model, Km taken as Kd of DM for the pMHCII (OPT1-DR1: initial velocities, Lineweaver-Burk). On the technique in general: Polarisation of emitted light reports the rotation of a fluorescent probe.

For “soluble recombinant HLA-DM (DMA*0101/DMB*0101) (complex)”, the kcat, fold change against the 0410 complex in test [1] was 8 fold. Moreover, the kcat, fold change against OPT1-DR1 in test [2] is over 2600 fold; in test [4], over 120 fold; in test [6], over 1300 fold; in test [8], 2 fold. Also, the kcat, fold change against the homologous complex with Tyr at P1 in test [3] came out at 18 fold. For the same substance, the kcat, fold change against the I9E complex in test [5] was 510 fold. In addition, the kcat, fold change against OPT1-DR1 (A6E) in test [7] is over 200 fold. The kcat, fold change against the A6G complex (G6E) in test [7] was over 100 fold. Further, the fold decrease in Km against the homologous complex with Ile at P9 in [9] turned out to be 9 fold.

The values above are taken from paper PMC7062162.
